Experiments:
[1] = test system: T1, myc-tagged rat mAKAP 1286-2083 (lacking the PP2A binding site)
T1 sequence: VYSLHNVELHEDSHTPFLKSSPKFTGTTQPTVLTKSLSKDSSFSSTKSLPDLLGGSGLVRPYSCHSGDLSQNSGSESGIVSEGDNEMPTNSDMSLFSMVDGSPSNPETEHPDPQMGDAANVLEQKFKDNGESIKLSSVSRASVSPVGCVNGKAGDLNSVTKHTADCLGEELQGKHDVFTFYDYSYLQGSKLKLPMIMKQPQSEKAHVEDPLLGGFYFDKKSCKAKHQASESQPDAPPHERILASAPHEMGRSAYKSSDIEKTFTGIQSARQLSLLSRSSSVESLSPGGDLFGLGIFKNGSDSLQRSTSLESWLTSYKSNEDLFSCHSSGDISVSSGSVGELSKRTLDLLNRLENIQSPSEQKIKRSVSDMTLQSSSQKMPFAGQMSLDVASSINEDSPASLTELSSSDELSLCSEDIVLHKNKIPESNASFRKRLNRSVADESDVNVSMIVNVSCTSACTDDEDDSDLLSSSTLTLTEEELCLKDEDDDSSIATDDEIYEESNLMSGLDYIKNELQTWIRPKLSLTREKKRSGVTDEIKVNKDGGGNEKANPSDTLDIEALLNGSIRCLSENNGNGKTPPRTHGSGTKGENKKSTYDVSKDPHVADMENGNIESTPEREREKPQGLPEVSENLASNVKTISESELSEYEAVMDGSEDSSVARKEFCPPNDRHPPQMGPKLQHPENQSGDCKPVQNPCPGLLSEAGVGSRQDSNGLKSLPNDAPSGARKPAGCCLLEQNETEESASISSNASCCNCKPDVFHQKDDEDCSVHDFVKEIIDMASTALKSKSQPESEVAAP

[2] = test system: endogenous rat mAKAPβ (native mAKAP of adult rat heart extracts and neonatal rat ventricular myocytes)
[3] = test system: T2, myc-tagged rat mAKAP PP2A Binding Domain (myc-PBD, rat mAKAP aa 2134-2314)
T2 sequence: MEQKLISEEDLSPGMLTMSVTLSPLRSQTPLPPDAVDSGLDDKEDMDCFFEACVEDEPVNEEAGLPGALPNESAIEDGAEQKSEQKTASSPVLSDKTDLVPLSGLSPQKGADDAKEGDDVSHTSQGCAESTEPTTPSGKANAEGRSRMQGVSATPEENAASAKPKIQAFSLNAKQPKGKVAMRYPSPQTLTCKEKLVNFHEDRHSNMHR

[4] = target: PP2A endogenous in HEK293 cells, detected as PP2A-C subunit or as okadaic acid-sensitive phosphatase activity; assay: cell-based or functional assay
PDE4D3 Ser-54 = PDE4D3 Ser-54 phosphorylation in mAKAP immunoprecipitates from transfected HEK293 cells (phospho-specific immunoblot); type: cell-based; conditions: HEK293 cells expressing PDE4D3 and mAKAP construct lacking the PP2A binding site
mAKAP-bound PDE4D3 = assay: PDE activity associated with mAKAP immunoprecipitates from transfected HEK293 cells ([3H]cAMP); type: cell-based; conditions: unstimulated (bar 1 and 4)
Procedure: Immunoprecipitation—HEK293 cells were used in this project as a heterologous system lacking mAKAP in which the various wildtype and mutant proteins could be easily expressed. Cells cultured on 60 mm plates were transfected at 50%-70% confluency by the calcium phosphate method, using 6 μg of each DNA construct per plate. Cells were harvested 24 hours after transfection in 0.5 ml HSE buffer (HEPES, pH 7.4, 150 mM NaCl, 5 mM EDTA, 1% Triton X-100 and protease inhibitors). Supernatants were incubated with 3 μg antibody and 15 μl prewashed protein A- or G-agarose beads. Following overnight incubation at 4° C., the immunoprecipitates were washed three times with the same buffer. Bound proteins were analyzed by immunoblotting. […]
As phosphorylation of PDE4D3 Ser-54 increases phosphodiesterase activity 2 fold (Sette and Conti 1996), whether OA treatment would also increase the activity of mAKAP-bound PDE4D3 was tested. mAKAP complexes were immunoprecipitated from transfected HEK293 cells and assayed for associated phosphodiesterase activity (FIG. 8B). mAKAP-associated phosphodiesterase activity in untreated cells was detected only when mAKAP was co-expressed with PDE4D3 (FIG. 8B, bar 1, and data not shown), consistent with a previous observation that PDE4D3 accounts for all of the phosphodiesterase activity associated with mAKAP in cardiac myocytes (Dodge et al. 2001).

PP2A = target: T3, PP2A (Homo sapiens, UniProt P30153+P67775); assay: myc-tag immunoprecipitation of mAKAP fragments from HEK293 cells with phosphatase assay; type: binding; conditions: myc-tagged fragments expressed in HEK293 cells
T3 construct: endogenous in cells; host or cells: HEK293
Procedure: Immunoprecipitation—HEK293 cells were used in this project as a heterologous system lacking mAKAP in which the various wildtype and mutant proteins could be easily expressed. Cells cultured on 60 mm plates were transfected at 50%-70% confluency by the calcium phosphate method, using 6 μg of each DNA construct per plate. Cells were harvested 24 hours after transfection in 0.5 ml HSE buffer (HEPES, pH 7.4, 150 mM NaCl, 5 mM EDTA, 1% Triton X-100 and protease inhibitors). Supernatants were incubated with 3 μg antibody and 15 μl prewashed protein A- or G-agarose beads. Following overnight incubation at 4° C., the immunoprecipitates were washed three times with the same buffer. Bound proteins were analyzed by immunoblotting.
To measure phosphatase activity, immunoprecipitated protein complexes were washed twice in HSE buffer and once in PP2A reaction buffer. The immunoprecipitates were incubated for 30 minutes at 30° C. in 20 μl PP2A assay buffer containing 100,000 cpm [^32P]histone in the presence and absence of inhibitors. The PP2A inhibitor (Calbiochem) was used at a concentration of 30 nM. Purified I-1 was phosphorylated by PKA before using as a specific PP1 inhibitor. Reactions were terminated by the addition of 100 μl 20% TCA followed by 10 min centrifugation. TCA supernatants containing released ^32PO4 were measured by scintillation counting. […]

[5] = target: T4, myc-tagged, green fluorescent protein (GFP) RBD-fusion protein (mAKAP aa 1694-1833)
T4 chain: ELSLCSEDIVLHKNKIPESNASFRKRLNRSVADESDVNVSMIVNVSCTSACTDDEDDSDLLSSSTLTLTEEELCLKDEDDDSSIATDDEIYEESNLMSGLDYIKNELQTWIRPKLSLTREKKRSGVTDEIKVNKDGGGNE

[6] = test system: adult rat ventricular myocytes (ARVM); assay: ARVM morphologic hypertrophy (cell width and length by immunocytochemistry); type: cell-based; conditions: adenoviral expression, no drug
Procedure: Adult rat ventricular myocyte isolation and culture: 2-3 month old rats were anesthetized using Ketamine (80-100 mg/kg) and Xylazine (5-10 mg/kg) IP following 1000 U heparinization for cardiac excision. The heart was transferred immediately into chilled perfusion buffer (NaCl 120 mM, KCl 5.4 mM, Na2HPO4·7H2O 1.2 mM, NaHCO320.0 mM, MgCl2·6H2O 1.6 mM, Taurine 5 mM, Glucose 5.6 mM, 2,3-Butanedione monoxime 10 mM) pre-equilibrated with 95% O2 and 5% CO2. After removal of extraneous tissue, the heart was attached via the aorta to a Harvard Langendorff apparatus cannula. Ca^2+-free perfusion was used to flush out remaining blood with a constant rate of 8-10 mL/min at 37° C. The heart was then digested through circulatory perfusion with 50 mL perfusion buffer containing 125 mg type II collagenase (Worthington, 245 U/mg), 0.1 mg protease (Sigma type XIV) and 0.1% BSA. After perfusion, the atria were removed and the ventricular myocytes dissociated by slicing and repetitive pipetting. The debris was filtered by a 200 μm nylon mesh, and the myocytes collected by one minute centrifugation at 50 g. Ca^2+ concentration in the buffer was gradually recovered to 1.8 mM and the myocytes were resuspended in ACCT medium (M199 Medium (Invitrogen 11150-059), Creatine 5 mM, L-carnitine 2 mM, Taurine 5 mM, HEPES 25 mM, 2,3-Butanedione monoxime 10 mM, BSA 0.2% and 1×Insulin-Transferrin-Selenium Supplement) and plated on 10 μg/ml laminin pre-coated dishes. Cells were washed with ACCT medium 1.5 hours after plating and subjected to adenoviral infection or siRNA transfection, in which 100-200 Multiplicity of Infection (MOI) of adenovirus and 100 nmol/L siRNA mixed with Dharmafect1 (Dharmacon) were used, respectively. Adrenergic agonists were added the next day, with biochemical assay and morphological measurement performed after 24 hours of stimulation.
Immunocytochemistry: Myocytes on coverslips were fixed in 3.7% formaldehyde in PBS for 1 hour, permeabilized with 0.3% Triton X-100, and blocked in PBS containing 0.2% BSA and 1% horse serum. The slides were then sequentially incubated for 1 hour with primary and Alexa fluorescent dye-conjugated specific-secondary antibodies (Invitrogen, 1:1000) diluted in blocking buffer. The slips were washed three times with blocking buffer. 1 μg/mL Hoechst 33258 was included in the last wash stop to label nuclei. Slides were sealed in SlowFade Gold antifade buffer (Invitrogen, S36938) for fluorescent microscopy. Wide-field images were acquired using a Leica DM4000 Microscope.

T3 sequence (P67775 whole entry, the tested form may be a part): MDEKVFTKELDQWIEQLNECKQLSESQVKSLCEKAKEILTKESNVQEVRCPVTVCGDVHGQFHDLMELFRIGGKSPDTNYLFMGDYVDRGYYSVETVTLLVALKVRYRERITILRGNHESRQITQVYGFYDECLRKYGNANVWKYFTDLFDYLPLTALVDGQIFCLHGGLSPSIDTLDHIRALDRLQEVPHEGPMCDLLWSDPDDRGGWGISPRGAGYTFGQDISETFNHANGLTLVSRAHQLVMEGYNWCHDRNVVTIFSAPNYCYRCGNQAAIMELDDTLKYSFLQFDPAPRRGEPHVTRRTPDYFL
T3 sequence (P30153 whole entry, the tested form may be a part): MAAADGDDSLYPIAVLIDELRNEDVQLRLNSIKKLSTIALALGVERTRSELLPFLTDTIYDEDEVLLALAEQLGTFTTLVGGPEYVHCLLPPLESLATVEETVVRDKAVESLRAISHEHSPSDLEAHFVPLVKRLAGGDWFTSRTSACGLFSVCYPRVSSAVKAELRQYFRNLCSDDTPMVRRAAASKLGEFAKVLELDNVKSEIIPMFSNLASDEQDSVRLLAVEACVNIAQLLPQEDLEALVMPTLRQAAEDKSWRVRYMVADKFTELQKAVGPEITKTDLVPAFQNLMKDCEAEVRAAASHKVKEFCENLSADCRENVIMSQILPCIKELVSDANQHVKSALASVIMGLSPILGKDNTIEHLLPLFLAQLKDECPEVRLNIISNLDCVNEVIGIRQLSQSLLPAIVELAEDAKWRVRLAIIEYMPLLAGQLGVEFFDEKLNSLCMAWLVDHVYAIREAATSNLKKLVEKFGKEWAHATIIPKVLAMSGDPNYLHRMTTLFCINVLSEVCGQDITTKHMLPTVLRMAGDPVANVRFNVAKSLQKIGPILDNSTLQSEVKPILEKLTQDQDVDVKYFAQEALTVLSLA

With “PP2A endogenous in HEK293 cells, detected as PP2A-C subunit or as okadaic acid-sensitive phosphatase activity” the “baseline phosphorylation of mAKAP-bound PDE4D3 Ser-54” value [1] was 0.49±0.19 fold of the level obtained with OA.

“endogenous PP2A of rat heart and rat ventricular myocytes, detected as PP2A catalytic subunit (PP2A-C)” was tested, and the “phosphatase activity associated with mAKAP immunoprecipitates from heart extracts ([32P]histone substrate)” value [2] was 3-fold enrichment of phosphatase activity over control IgG immunoprecipitates and the “Iso-induced SRF Ser103 phosphorylation in ARVM” value [3] was “PBD expression potentiated the induction of SRF Ser^103 phosphorylation in ARVM stimulated with the β-adrenergic isoproterenol”.

“myc-tagged rat mAKAP 1286-2083 (lacking the PP2A binding site) (from UniProt Q9WVC7 1286-2083)” showed a PDE4D3 activity in myc-tag immunoprecipitates [4] of 30 % higher.

B1: mAKAP 1286-2083: myc-tagged rat mAKAP 1286-2083 construct deficient in PP2A binding (protein)
chain: T1 sequence
modifications: left off: small tags and cut ends
In the case of B1, the “baseline phosphorylation of mAKAP-bound PDE4D3, fold of the level obtained with OA” value (PDE4D3 Ser-54) is reported as 0.49±0.19 fold, the “PDE4D3 activity higher in immunoprecipitates lacking PP2A than in complexes containing the phosphatase” value (mAKAP-bound PDE4D3) is reported as 30% and the “co-immunoprecipitation with OA-sensitive phosphatase activity” value (PP2A) is reported as “not”.

B2: endogenous RSK3 of rat ventricular myocytes (protein)
chain: MELNMKKFTVRRFFSVYLRKKSRSKSSSLSRLEEEGIVKEIDISSHVKEGFEKADPSQFELLKVLGQGSYGKVFLVRKVTGSDAGQLYAMKVLKKATLKVRDRVRSKMERDILAEVNHPFIVKLHYAFQTEGKLYLILDFLRGGDLFTRLSKEVMFTEEDVKFYLAELALALDHLHGLGIIYRDLKPENILLDEEGHIKITDFGLSKEAIDHDKRAYSFCGTIEYMAPEVVNRRGHTQSADWWSFGVLMFEMLTGSLPFQGKDRKETMALILKAKLGMPQFLSAEAQSLLRALFKRNPCNRLGAGVDGVEEIKRHPFFVTIDWNKLYRKEIKPPFKPAVGRPEDTFHFDPEFTARTPTDSPGVPPSANAHHLFRGFSFVASSLVQEPSQQDVPKAPIHPIVQQLHGNNIHFTDGYEIKEDIGVGSYSVCKRCVHKATDAEYAVKIIDKSKRDPSEEIEILLRYGQHPNIITLKDVYDDGKYVYLVMELMRGGELLDRILRQRCFSEREASDVLYTIARTMDYLHSQGVVHRDLKPSNILYMDESGNPESIRICDFGFAKQLRAENGLLMTPCYTANFVAPEVLKRQGYDAACDVWSLGILLYTMLAGFTPFANGPDDTPEEILARIGSGKYALSGGNWDSISDAAKDVVSKMLHVDPQQRLTAVQVLKHPWIVNREYLSQNQLSRQDVHLVKGAMAATYFALNRTPQAPRLEPVLSSSLAQRRGMKRLTSTRL
In the case of B2, the “PE-induced SRF Ser103 phosphorylation in NRVM and ARVM” value [5] is reported as “inhibited PE-induced SRF Ser^103 phosphorylation in both NRVM and primary adult rat ventricular myocyte cultures” and the “basal ARVM morphology” value [6] is reported as “selectively increased the width”.

Reference: patent US11938198B2, “Treatment of heart disease by disruption of the anchoring of PP2A” (University of Miami, priority 2019, dated 2024)
